Laboratory results: PMC5557850

Tests used:
[1] = target: full-length FapF (FapF 1–406) (Pseudomonas sp. UK4); test: native MS; 0.5 M ammonium acetate pH 7.6 with 0.5% C8E4; nano-electrospray, modified Q-Exactive
[2] = target: full-length FapF (FapF 1–406) (Pseudomonas sp. UK4)
[3] = target: FapF coiled-coil peptide D3–Q40 (Pseudomonas sp. UK4); test: SEC-MALS; Superdex 200 HR 10/30 column coupled to multiple laser light scattering; isolated coiled-coil peptide

Substance: full-length FapF (FapF 1–406) (natural protein)
- stoichiometry N [1]: 3
- single-channel current recording in planar DPhPC bilayers: voltage-induced gating at an applied potential of −250 mV [2]: 3 steps

Substance: FapF coiled-coil peptide D3–Q40
- stoichiometry N [3]: 3
